Results on seven substances are retold here after patent publication US20170035898A1, “CONJUGATES OF AN IL-15 MOIETY AND A POLYMER” (Nektar Therapeutics, priority 2014, published 2017).

Test [1] has as its target IL-15-Rα-Fc. Put plainly: SPR (Biacore), IL-15Rα-Fc captured by anti-human Fc antibody, Kd from kd/ka. In general terms: In SPR one partner is held on a chip, and binding of the other changes the refractive index at the surface.
Test [2] deals with IL-15-Rα-Fc. Put plainly: SPR (Biacore), IL-15Rα-Fc captured by anti-human Fc antibody, test article injected.
Test [3] has as its system STAT5 phosphorylation in CTLL-2 cells. The test is described as follows: Measurement of IL-15 activity of rIL-15 conjugates based on STAT5 phosphorylation in CTLL-2 cells (Example 8). The class given is cell-based. To be noted: 10 minute treatment. The protocol:
One day prior to the assay, CTLL-2 cells were split into fresh growth medium [RPMI 1640 supplemented with 10% FBS, 10% T-cell culture supplement (catalog #354115, Corning, Inc., Tewksbury, Mass.), 2 mM L-glutamate, and 1 mM sodium pyruvate]. On the day of assay, cells were pre-incubated in assay medium (RPMI 1640 supplemented with 1% FBS, 2 mM L-glutamate, and 1 mM sodium pyruvate) for at least four hours, and then plated in assay medium in a 96-well plate at 50,000 cells/well. Dilutions of the test article were prepared in an appropriate buffer immediately prior to assay. Stimulation of CTLL-2 cells was initiated by the transfer of 25× test article solutions to triplicate wells containing CTLL-2 cells. Plates were incubated at 37° C., 5% CO2 for 10 minutes, and the reaction was stopped by cell lysis. Detection of phospho-STAT5 and total STAT5 protein levels in cell lysates was performed using the MSD Phospho (Tyr694)/Total STATa,b Whole Cell Lysate Kit (catalog #K15163D, Meso Scale Diagnostics, LLC, Gaithersburg, Md.). […] Conjugates prepared in accordance with Examples 2, 3 and 5 were tested, with the results following a 10 minute treatment provided in Table 4.

Test [4] shares this test system. The test is described as follows: Measurement of IL-15 activity of rIL-15 based on STAT5 phosphorylation in CTLL-2 cells (Example 1). The class given is cell-based. From the text: For any given peptide, protein moiety or conjugate, it is possible to determine whether that peptide, protein moiety or conjugate has IL-15 activity. Various methods for determining in vitro IL-15 activity are described in the art. An exemplary approach is based on a pSTAT assay. Briefly, if an IL-15-dependent CTLL-2 cell is exposed to a test article having IL-15 activity, initiation of a signaling cascade results that includes the phosphorylation of STAT5 at tyrosine residue 694 (Tyr694) that can be quantitatively measured.
One day prior to assay, CTLL-2 cells were split into fresh growth medium (RPMI 1640+10% FBS+10% T-STIM+2 mM L-glut+1 mM Na-pyruvate). On the day of assay, cells were pre-incubated in assay medium (RPMI 1640+1% FBS+2 mM L-glut+1 mM Na-pyruvate) for at least 4 hours and then placed in a 96-well plate at 50,000 cells/well in the assay medium.
Dilutions of the test article were prepared in an appropriate buffer immediately prior to assay and each dilution of test article was incubated in a separate well of the CTLL-2 cells. The phosphorylation of STAT5 was then determined using the MSD Phospho (Tyr694)/Total STATa,b Whole Cell Lysate Kit (catalog #K15163D, […], LLC, Gaithersburg, Md.).

Another test concerns B16F10 melanoma tumor. Put plainly: Antitumor activity of rIL-15 conjugates in B16F10 melanoma tumor (Example 9). The note with it: conjugates 0.6 mg/kg i.v. once, IL-15 0.3 mg/kg i.p. every other day x6. The class given is in vivo, C57BL/6 mice. The protocol:
To test and compare the efficacy of rIL-15 conjugates in an in vivo model, syngenic tumors were induced in 6-8 week old female C57BL/6 mice by subcutaneously injecting, into post ventral abdominal region, mouse metastatic B16F10 melanoma cells at a density of 1×10^6 cells mL-1 in 100 μL volume of non-serum containing cell culture medium. The mice developed tumors of approximately 100 mm^3 by the end of 6-8 days. The mice were divided into six groups, each group consisting of 10 animals.
Groups A through D correspond to rIL-15 conjugates that were administered at 0.6 mg/kg body weight by intravenous injection to the mice only once while Group E represents unconjugated IL-15 administered every other day via intraperitoneal injection. Group F represents a vehicle control, wherein phosphate buffered saline was administered by intravenous injection.
Following dose administration, the mice were measured for changes in body weight and for the growth of subcutaneous metastatic melanoma tumors by digital calipers three times a week. Daily clinical signs were also monitored. The study end point was reached when the mean volume of the tumors reach 1500 mm^3 (i.e., a mean tumor volume of 1500 mm^3).

The next test relates to IL-15Rα. Put plainly: Receptor affinities for IL-15Rα by Surface Plasmon Resonance (Example 10). The class given is binding. To be noted: SPR. As for the experimental part:
The affinities of IL-15 and rIL-15 conjugates were measured using Surface Plasmon Resonance (“SPR”). Briefly, the surface of a Biacore CMS sensor chip was activated using a 1:1 mixture of NHS:EDC to generate active NHS esters. Goat anti-human Fc antibody was covalently attached to the surface by injecting it for five minutes in 10 mM sodium acetate (pH 4). There were approximately 8000 RU of antibodies bound to the surface. Any remaining NHS ester was then quenched with ethanolamine
At the initiation of each injection cycle, IL-15-Rα-Fc was captured on a sensor chip channel by a five minute injection step in PBSP. Typically, 150-200 RU of receptors were bound on the surface.
rIL-15 conjugates were diluted to 10 μM in PBS (containing 0.05% Tween 20 and 0.1 mg/ml BSA). A series of 3-fold dilutions were made and injected onto a sensor chip which was coated with IL-15Rα. The affinities were measured by determining the ka and kd rates separately, and the ratio between kd and ka was used to calculate the Kd values.

Where [5] appears, read: days from the day of implantation.
[6] abbreviates: IL-15-Rα-Fc captured on sensor chip.

By Kd is commonly meant a measure of binding affinity in units of concentration. As to “Fraction containing mono-PEG-rIL-15 from Example 2 ([mPEG2-ru-20K]-[rIL-15] conjugates) (from UniProt P40933 49-162) (ligand)”, the dissociation constant Kd with IL-15-Rα-Fc [1] stood at 0.043 nM.
Turning to “recombinant IL-15 (unconjugated) (from UniProt P40933 49-162) (ligand)”, the dissociation constant Kd in the test with IL-15-Rα-Fc [1] was determined as 0.0038 nM.
The koff is the first-order rate constant of dissociation. Lower therefore signals slow dissociation. The kon is the rate constant with which the complex forms. Low readings indicate slow association, high ones fast association. Regarding “Fraction containing di- and tri-PEG-rIL-15 from Example 5 ([mPEG2-ru-40K]-[rIL-15] conjugates) (from UniProt P40933 49-162) (ligand)”, in the test with IL-15-Rα-Fc [2], the koff was determined as 0.00088 s⁻¹ and the kon worked out at 460000 M⁻¹ s⁻¹. The same substance yielded a Kd with IL-15-Rα-Fc [1] of 1.9 nM.
In the test with IL-15-Rα-Fc [2], “Fraction containing di- and tri-PEG-rIL-15 from Example 2 ([mPEG2-ru-20K]-[rIL-15] conjugates) (from UniProt P40933 49-162) (ligand)” displayed a dissociation rate constant (koff) of 0.00049 s⁻¹ and a kon of 2.6e+06 M⁻¹ s⁻¹. For the same substance, the Kd with IL-15-Rα-Fc [1] amounted to 0.183 nM.
In the test with IL-15-Rα-Fc [2], “Fraction containing tri-PEG-rIL-15 from Example 5 ([mPEG2-ru-40K]-[rIL-15] conjugates) (from UniProt P40933 49-162) (ligand)” yielded a dissociation rate constant (koff) of 0.0039 s⁻¹ and an on-rate constant (kon) of 420000 M⁻¹ s⁻¹. Also, the Kd in the test with IL-15-Rα-Fc [1] amounted to 9.4 nM.
In the test with IL-15-Rα-Fc [2], “Fraction containing mono-PEG-rIL-15 from Example 5 ([mPEG2-ru-40K]-[rIL-15] conjugates) (from UniProt P40933 49-162) (ligand)” came in with a koff of 0.00047 s⁻¹ and a kon of 130000 M⁻¹ s⁻¹. The equilibrium dissociation constant (Kd) with IL-15-Rα-Fc [1] is 3.56 nM.
In the case of “IL-15: recombinant human IL-15 obtained from PeproTech (catalog #200-15); unconjugated control”, the “EC50 (ng/mL) Ave ± SD” value in test [3] came to 0.063 ± 0.028 ng/mL. Moreover, the “average pSTAT5 EC50” value in test [4] (at 5 minutes, average over two runs) came out at 0.2071 ng/mL. Also, the “pSTAT5 EC50” value in test [4] (at 10 minutes) came to 0.08187 ng/mL. Moreover, in the test on B16F10 melanoma tumor, the “Tumor Volume Doubling Time (500 mm^3)” value was found to be 2.9 days and the “Tumor Volume Doubling Time (1000 mm^3)” value turned out to be 5.6 days. In the test with B16F10 melanoma tumor (setting [5]), the “Time to reach 250 mm^3” value came out at 10.6 days, the “Time to reach 500 mm^3” value came to 13.5 days and the “Time to reach 1000 mm^3” value was found to be 19.1 days. In the test on B16F10 melanoma tumor (versus vehicle control Group F), the “Tumor growth delay for 250 mm^3” value was 0.6 days, the “Tumor growth delay for 500 mm^3” value stood at 0.9 days and the “Tumor growth delay for 1000 mm^3” value was 4 days. Besides, in the test with IL-15Rα (setting [6]), the ka is 7.5e+06 M⁻¹ s⁻¹ and the kd was determined as 0.00028 s⁻¹. In addition, the dissociation constant Kd on IL-15Rα (read-out: affinity (Kd)) came to 0.0038 nM.
